We go through ten substances from patent US20150018530A1.

In experiment [1] the target is EGF receptor on A431 cells (UniProt P00533). Description: Flow cytometry binding curve of the Fab on A431 cells (binding conditions 'as described previously'); y axis Median rises from about 20 to about 790. In general terms: A flow cytometer gives signals particle by particle.
Experiment [2] shares this target. Description: competition flow cytometry on A431 cells; scFv pre-bound, mAb108 at 7.5 nM as competitor, APC anti-mouse detection.
Experiment [3] has the same target. Briefly: Competition flow cytometry on A431 cells: cells incubated with the scFv at varied concentration and washed, then mAb108 at 7.5 nM, detected with APC-labelled anti-mouse antibody; y axis Median.
Experiment [4] shares this target. Briefly: flow cytometry on A431 cells; binding conditions 'as described previously' (competition with mAb108).
Experiment [5] shares this target. Briefly: flow cytometry on A431 cells; concentration of mAb108 used in the competition assay.

Chain of wild type scFv-108 (periplasmic) (scFv): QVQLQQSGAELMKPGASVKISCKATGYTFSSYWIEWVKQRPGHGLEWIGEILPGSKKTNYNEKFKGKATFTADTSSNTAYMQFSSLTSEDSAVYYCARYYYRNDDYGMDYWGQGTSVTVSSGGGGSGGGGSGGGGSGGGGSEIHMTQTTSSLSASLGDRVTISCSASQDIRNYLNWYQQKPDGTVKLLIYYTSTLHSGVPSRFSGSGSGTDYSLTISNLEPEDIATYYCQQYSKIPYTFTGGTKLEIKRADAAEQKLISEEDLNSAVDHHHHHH

Broadly, the EC50 is the concentration needed to bring the measured effect to its halfway point. A higher EC50 goes with a less potent agent. Substance “Fab-108 Thr204 pAF (from UniProt P01834 1-107)” came in with an EC50 in experiment [1] of 6.2 nM.

For the substance scFv-108 Leu156pAF, in experiment [2], the IC50 relative to the wild type scFv amounted to 1.8 x.

What is called IC50 is the concentration that gives 50% inhibition. As to scFv-108 Ser136pAF-5K PEG, the IC50 in experiment [3] was determined as 51 nM. The substance further registered an IC50 relative to the wild type scFv in experiment [2] of 6.3 x.

As to scFv-108 Ser131pAF, in experiment [2], the IC50 relative to the wild type scFv was 1.3 x.

Consider “wild type Fab-108 (from UniProt P01834 1-107)”, for which, in experiment [4], the EC50 was found to be 3 nM. This counts as single-digit nanomolar.

In experiment [3], scFv-108 Ser136pAF yielded an IC50 of 13.1 nM. In addition, in experiment [2], the IC50 relative to the wild type scFv worked out at 1.6 x.

In turn, scFv-108 His144pAF came in with an IC50 relative to the wild type scFv in experiment [2] of 2.6 x.

scFv-108 Ser193pAF: the IC50 relative to the wild type scFv in experiment [2] stood at 1.8 x.

wild type scFv-108 (periplasmic) yielded an IC50 in experiment [2] of 8.1 nM.

As a reminder, the EC80 is the point of the concentration-response curve where the effect stands at 80%. Low readings indicate greater potency, high ones weaker potency. For the substance “EGFR-specific monoclonal antibody mAb108 (ATCC #HB 9764)”, in experiment [5], the EC80 was found to be 7.5 nM.
